# In patent US20130324474A1 (Eli Lilly, published 2013):
# Changes are numbered by the printed parent chain. Names and notes keep the numbering of the source.
# T1: Recombinant Human GFRα-2/GDNF Rα-2 Fc Chimera (human, UniProt O00451 22-441)
# T1 construct: Purchased Fc chimera; not shown: Fc part of a purchased Fc chimera
# T1 sequence (looked up): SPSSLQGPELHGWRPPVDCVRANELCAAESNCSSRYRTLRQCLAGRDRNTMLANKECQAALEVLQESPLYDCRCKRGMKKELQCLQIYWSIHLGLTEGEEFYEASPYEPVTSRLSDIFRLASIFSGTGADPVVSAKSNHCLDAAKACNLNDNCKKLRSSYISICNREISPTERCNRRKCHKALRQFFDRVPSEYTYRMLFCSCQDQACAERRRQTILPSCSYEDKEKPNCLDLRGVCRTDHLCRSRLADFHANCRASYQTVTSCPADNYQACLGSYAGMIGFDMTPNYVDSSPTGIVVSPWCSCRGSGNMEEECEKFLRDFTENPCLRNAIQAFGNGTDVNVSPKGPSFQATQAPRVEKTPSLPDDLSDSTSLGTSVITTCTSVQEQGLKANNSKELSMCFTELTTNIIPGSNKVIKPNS
# T2: Recombinant Human GFRα-1/GDNF Rα-1 Fc Chimera (human, UniProt P56159 25-429)
# T2 construct: Purchased Fc chimera; It was captured on protein A in Biacore and coated on the plate in ELISA; also called GFRα1-Fc; recombinant human GFRα1-Fc chimera, carrier-free; not shown: Fc part of a purchased Fc chimera
# T2 sequence (looked up): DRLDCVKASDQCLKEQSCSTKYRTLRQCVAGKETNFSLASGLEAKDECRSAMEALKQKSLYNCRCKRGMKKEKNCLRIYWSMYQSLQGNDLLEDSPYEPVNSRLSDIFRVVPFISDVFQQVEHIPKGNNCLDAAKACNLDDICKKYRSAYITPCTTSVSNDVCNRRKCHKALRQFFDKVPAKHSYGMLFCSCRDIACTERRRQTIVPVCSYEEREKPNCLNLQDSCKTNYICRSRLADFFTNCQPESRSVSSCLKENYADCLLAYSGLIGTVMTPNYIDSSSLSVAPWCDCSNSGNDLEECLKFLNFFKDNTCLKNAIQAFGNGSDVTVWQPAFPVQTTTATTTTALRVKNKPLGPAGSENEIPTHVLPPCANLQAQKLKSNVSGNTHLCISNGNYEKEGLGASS
# B1: CHO-Δ31-GDNF (SEQ ID NO: 8) (ligand)
# chain: RGQRGKNRGCVLTAIHLNVTDLGLGYETKEELIFRYCSGSCDAAETTYDKILKNLSRNRRLVSDKVGQACCRPIAFDDDLSFLDDNLVYHILRKHSAKRCGCI
# modifications: N-glycosylated at N49 (numbering of mature GDNF)
# notes: Expressed in CHO cells; also called CHO-Δ31-GDNFv; WT CHO Δ31-GDNFv
# B2: CHO-Δ31-N38Q-D95E-GDNF (SEQ ID NO: 9) (ligand)
# chain: B1 chain with N7Q, D64E
# modifications: N-glycosylated at N49 (numbering of mature GDNF)
# notes: Expressed in CHO cells; also called CHO-Δ31-N38Q-D95E-GDNFv; GDNF variant 2
# Key:
# [1] = target: T1, Recombinant Human GFRα-2/GDNF Rα-2 Fc …; assay: SPR (Biacore 2000), human GFRα2-Fc captured on protein A, GDNFv as analyte, 1:1 Langmuir, 25 C
# Experimental: A Biacore® 2000 instrument is used to measure the binding kinetics of GDNFv to human and rat GDNF family receptors (GFRα1 and GFRα2). Measurements are performed at 25° C. Samples are dissolved in HBS-EP buffer (150 mM sodium chloride, 3 mM EDTA, 0.005% (w/v) surfactant P-20, pH 7.4). Protein A, Staphylococcus aureus is immobilized on flow cells 1 to 4 of a CM4 sensor chip (GE Healthcare #BR-1005-39) at a level of ˜200 response units (RUs) using amine coupling chemistry to capture GFR Fc chimera (Recombinant Human GFRα-1/GDNF Rα-1 Fc Chimera; Recombinant Human GFRα-2/GDNF Rα-2 Fc Chimera; Recombinant Rat GFRα-1/GDNF Rα-1 Fc Chimera; Recombinant Mouse GFRα-2/GDNF Rα-2 Fc Chimera).
# Binding is evaluated using multiple cycles. Each cycle consists of the following steps: 1) injection of about 10 μL of GFR at a concentration of ˜1.0 μg/mL and a flow rate of 10 μL/min., aiming at a capture of 120-150 RUs; 2) injection of 250 μL of GDNFv at a flow rate of 50 μL/min., in a final concentration rage between 10 nM and 0.04 nM followed by […]. for dissociation; and 3) regeneration using about 30 μL of 10 mM glycine hydrochloride, pH 1.5. Association and dissociation rates for each cycle are evaluated using a “1:1 (Langmuir) binding” model in the BIAevaluation software, version 4.1.
# [2] = target: T2, Recombinant Human GFRα-1/GDNF Rα-1 Fc …; assay: ELISA, plate-bound human GFRα1-Fc; upper end of the 95% confidence range, n = 14
# Experimental: (§1) Each well of a 96-well plate (Greiner 655081 Immunobind ELISA plates) is coated with 70 μl of human GFRα1 (recombinant human GFRα1-Fc chimera, carrier-free) at 1 μg/ml in carbonate buffer, pH 9.6. If an irrelevant receptor is coated, it is an irrelevant Fc chimera and is coated at the same concentration as GFRα1. The plates are sealed and incubated at 4° C. overnight. The wells are aspirated and washed twice with washing buffer (20 mM Tris (hydroxymethyl) aminomethane, pH 7.4, 0.15 M NaCl, 0.1% Tween-20), using an automatic plate washer. The plates are blocked with 200 μl blocking buffer per well (3% Carnation Instant milk in the above washing buffer) for at least 1 hour at room temperature. Plates are washed twice with washing buffer. […]
# (§2) A 50 μl aliquot of horseradish peroxidase-conjugated streptavidin (Jackson ImmunoResearch, catalog #016-030-084), diluted 1:1000 in blocking buffer, is added to each well and incubated for 20-30 minutes at room temperature. […] The absorbance of the wells is read at 490 nm on a Molecular Devices SpectraMax250 plate reader. The average absorbance for the triplicate wells for each condition are determined, and the resulting values are processed for EC₅₀ calculation with Graph Pad Prism software to provide a 95% confidence range.
# [3] = target: T2, Recombinant Human GFRα-1/GDNF Rα-1 Fc …; assay: ELISA, plate-bound human GFRα1-Fc; lower end of the 95% confidence range, n = 14
# Experimental: as §1, §2
# [4] = target: T2, Recombinant Human GFRα-1/GDNF Rα-1 Fc …; assay: ELISA, plate-bound human GFRα1-Fc; lower end of the 95% confidence range, n = 4
# Experimental: as §1, §2
# [5] = target: T2, Recombinant Human GFRα-1/GDNF Rα-1 Fc …; assay: ELISA, plate-bound human GFRα1-Fc; upper end of the 95% confidence range, n = 4
# Experimental: as §1, §2
Binder,Kd [1] [nM],koff [1] [s⁻¹],kon [1] [M⁻¹ s⁻¹],EC50 [2] [nM],EC50 [3] [nM],EC50 [4] [nM],EC50 [5] [nM]
B1,0.047,0.00025,5.3e+06,0.3 to 0.6,0.3 to 0.6,–,–
B2,0.047,0.00035,7.6e+06,–,–,0.3 to 1.9,0.3 to 1.9
